The text below walks through data of US20220267475A1 (published 2022).

Assay [1] has as its target T1, TIGIT antigen expressed on CHO-K1 cells (UniProt Q495A1 22-244).
T1 chain: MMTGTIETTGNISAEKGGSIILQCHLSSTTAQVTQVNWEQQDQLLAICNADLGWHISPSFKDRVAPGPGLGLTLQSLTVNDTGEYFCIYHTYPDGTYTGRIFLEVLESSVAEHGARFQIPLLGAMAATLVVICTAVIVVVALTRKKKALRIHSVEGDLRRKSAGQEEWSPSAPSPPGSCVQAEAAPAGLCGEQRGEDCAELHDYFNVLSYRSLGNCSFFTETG
As to the kind of experiment: flow cytometry. (A flow cytometer gives signals particle by particle.)

The target of assay [2] is CD47 antigen expressed on CHO-K1 cells (UniProt Q08722 19-323). Briefly: flow.
Sequence of CD47 antigen expressed on CHO-K1 cells (Q08722 19-323): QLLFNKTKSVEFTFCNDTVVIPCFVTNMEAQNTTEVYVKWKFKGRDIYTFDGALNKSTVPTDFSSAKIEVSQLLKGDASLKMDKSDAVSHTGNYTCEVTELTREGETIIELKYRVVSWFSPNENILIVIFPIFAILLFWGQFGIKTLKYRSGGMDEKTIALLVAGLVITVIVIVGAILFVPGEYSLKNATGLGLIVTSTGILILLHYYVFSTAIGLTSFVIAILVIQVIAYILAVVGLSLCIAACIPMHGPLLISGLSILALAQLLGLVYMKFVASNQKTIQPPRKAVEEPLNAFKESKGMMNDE

B1: TIGIT-E-LN (bispecific antibody)
heavy: not shown
light: EVQLVESGGGLVQPGGSLRLSCAASGYKYGVYSMGWFRQAPGKGLEGVSAICSGGRTTYSDSVKGRFTISRDNSNQILYLQMNSLRAEDTAVYYCAARPLWTGDCDLSSSWYKTWGQGTLVTVSSEPKSSDKTHTSPPSPEIVLTQSPATLSLSPGERATLSCRASENVGTYISWYQQKPGQAPRLLIYGASNRYTGIPARFSGSGSGTDFTLTISSLEPEDFAVYYCGESYGHLYTFGGGTKVEIKRTVAAPSVFIFPPSDEQLKSGTASVVCLLNNFYPREAKVQWKVDNALQSGNSQESVTEQDSKDSTYSLSSTLTLSKADYEKHKVYACEVTHQGLSSPVTKSFNRGEC
Regarding B1, the EC50 – broadly, the concentration that produces a half-maximal response – in assay [1] amounted to 0.0757 nM.

B2: TIGIT-G9-HN (bispecific antibody)
heavy: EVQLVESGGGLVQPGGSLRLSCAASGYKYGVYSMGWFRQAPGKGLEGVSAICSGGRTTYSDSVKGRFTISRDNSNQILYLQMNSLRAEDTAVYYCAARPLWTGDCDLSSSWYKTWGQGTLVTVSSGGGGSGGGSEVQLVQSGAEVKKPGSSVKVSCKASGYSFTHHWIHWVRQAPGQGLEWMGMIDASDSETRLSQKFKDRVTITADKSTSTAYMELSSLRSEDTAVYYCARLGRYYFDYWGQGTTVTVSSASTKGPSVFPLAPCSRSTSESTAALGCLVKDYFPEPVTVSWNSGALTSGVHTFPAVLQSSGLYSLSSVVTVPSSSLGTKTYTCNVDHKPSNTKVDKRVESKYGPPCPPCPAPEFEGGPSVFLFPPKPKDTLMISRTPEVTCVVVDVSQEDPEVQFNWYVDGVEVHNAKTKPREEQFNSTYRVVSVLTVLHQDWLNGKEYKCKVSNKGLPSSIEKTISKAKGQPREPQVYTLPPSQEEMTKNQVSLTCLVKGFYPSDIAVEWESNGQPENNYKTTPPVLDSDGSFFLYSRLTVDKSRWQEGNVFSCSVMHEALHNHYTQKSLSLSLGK
light: EIVLTQSPATLSLSPGERATLSCRASENVGTYISWYQQKPGQAPRLLIYGASNRYTGIPARFSGSGSGTDFTLTISSLEPEDFAVYYCGESYGHLYTFGGGTKVEIKRTVAAPSVFIFPPSDEQLKSGTASVVCLLNNFYPREAKVQWKVDNALQSGNSQESVTEQDSKDSTYSLSSTLTLSKADYEKHKVYACEVTHQGLSSPVTKSFNRGEC
With B2, the EC50 in assay [1] worked out at 0.168 nM; in assay [2] it was 0.852 nM.

B3: TIGIT-E-HN (bispecific antibody)
heavy: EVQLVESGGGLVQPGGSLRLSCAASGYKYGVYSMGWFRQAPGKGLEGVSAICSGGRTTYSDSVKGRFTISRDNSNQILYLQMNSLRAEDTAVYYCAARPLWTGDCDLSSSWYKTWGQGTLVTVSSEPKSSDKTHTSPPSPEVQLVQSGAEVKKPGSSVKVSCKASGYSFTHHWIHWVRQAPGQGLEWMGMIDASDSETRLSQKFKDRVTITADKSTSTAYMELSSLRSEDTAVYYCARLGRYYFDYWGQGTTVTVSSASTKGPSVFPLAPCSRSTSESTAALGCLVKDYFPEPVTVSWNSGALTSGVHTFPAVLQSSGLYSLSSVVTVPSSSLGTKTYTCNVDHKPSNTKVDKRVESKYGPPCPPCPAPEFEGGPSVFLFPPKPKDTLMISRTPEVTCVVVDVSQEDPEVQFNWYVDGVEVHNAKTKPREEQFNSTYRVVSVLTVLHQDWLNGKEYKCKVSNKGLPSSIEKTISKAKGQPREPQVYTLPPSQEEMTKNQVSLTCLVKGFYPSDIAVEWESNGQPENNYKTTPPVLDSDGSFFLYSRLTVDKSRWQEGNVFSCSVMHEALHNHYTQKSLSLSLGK
light: EIVLTQSPATLSLSPGERATLSCRASENVGTYISWYQQKPGQAPRLLIYGASNRYTGIPARFSGSGSGTDFTLTISSLEPEDFAVYYCGESYGHLYTFGGGTKVEIKRTVAAPSVFIFPPSDEQLKSGTASVVCLLNNFYPREAKVQWKVDNALQSGNSQESVTEQDSKDSTYSLSSTLTLSKADYEKHKVYACEVTHQGLSSPVTKSFNRGEC
For the molecule B3, the EC50 came out at 0.132 nM in assay [1] and 0.65 nM in assay [2].

B4: TIGIT-G9-HC (bispecific antibody)
heavy: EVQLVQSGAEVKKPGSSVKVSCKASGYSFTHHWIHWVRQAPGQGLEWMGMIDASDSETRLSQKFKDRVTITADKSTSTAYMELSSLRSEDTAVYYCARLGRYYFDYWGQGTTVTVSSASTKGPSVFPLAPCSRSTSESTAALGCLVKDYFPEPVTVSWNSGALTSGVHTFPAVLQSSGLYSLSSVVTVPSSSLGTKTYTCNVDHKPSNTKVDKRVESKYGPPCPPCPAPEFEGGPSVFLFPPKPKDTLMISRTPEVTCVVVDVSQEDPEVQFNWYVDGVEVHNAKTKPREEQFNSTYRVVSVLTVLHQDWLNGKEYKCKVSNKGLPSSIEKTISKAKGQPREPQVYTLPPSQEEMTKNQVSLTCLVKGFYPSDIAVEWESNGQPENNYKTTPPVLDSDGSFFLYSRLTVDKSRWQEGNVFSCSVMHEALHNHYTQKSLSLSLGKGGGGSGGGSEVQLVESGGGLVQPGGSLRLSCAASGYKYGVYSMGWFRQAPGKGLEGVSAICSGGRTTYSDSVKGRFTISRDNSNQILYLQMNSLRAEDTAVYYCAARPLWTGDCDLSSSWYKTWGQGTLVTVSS
light: EIVLTQSPATLSLSPGERATLSCRASENVGTYISWYQQKPGQAPRLLIYGASNRYTGIPARFSGSGSGTDFTLTISSLEPEDFAVYYCGESYGHLYTFGGGTKVEIKRTVAAPSVFIFPPSDEQLKSGTASVVCLLNNFYPREAKVQWKVDNALQSGNSQESVTEQDSKDSTYSLSSTLTLSKADYEKHKVYACEVTHQGLSSPVTKSFNRGEC
Regarding B4, the EC50 in assay [1] is 0.429 nM; in assay [2], 0.686 nM.

B5: TIGIT-E-HC (bispecific antibody)
heavy: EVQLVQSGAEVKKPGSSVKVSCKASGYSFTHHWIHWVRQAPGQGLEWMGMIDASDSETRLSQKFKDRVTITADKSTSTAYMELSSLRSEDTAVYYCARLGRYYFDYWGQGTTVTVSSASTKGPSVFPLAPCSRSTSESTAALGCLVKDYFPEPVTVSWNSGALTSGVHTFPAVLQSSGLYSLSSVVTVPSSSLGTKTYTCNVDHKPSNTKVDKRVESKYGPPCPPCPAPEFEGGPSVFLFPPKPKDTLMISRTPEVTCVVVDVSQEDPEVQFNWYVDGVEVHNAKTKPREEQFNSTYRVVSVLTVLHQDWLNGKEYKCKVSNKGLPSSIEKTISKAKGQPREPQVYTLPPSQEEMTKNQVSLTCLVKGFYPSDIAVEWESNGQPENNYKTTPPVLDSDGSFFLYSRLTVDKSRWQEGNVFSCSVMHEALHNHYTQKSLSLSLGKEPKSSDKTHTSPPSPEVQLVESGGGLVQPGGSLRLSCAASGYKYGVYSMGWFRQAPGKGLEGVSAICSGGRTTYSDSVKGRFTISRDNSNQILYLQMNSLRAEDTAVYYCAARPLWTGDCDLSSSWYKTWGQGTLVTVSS
light: EIVLTQSPATLSLSPGERATLSCRASENVGTYISWYQQKPGQAPRLLIYGASNRYTGIPARFSGSGSGTDFTLTISSLEPEDFAVYYCGESYGHLYTFGGGTKVEIKRTVAAPSVFIFPPSDEQLKSGTASVVCLLNNFYPREAKVQWKVDNALQSGNSQESVTEQDSKDSTYSLSSTLTLSKADYEKHKVYACEVTHQGLSSPVTKSFNRGEC
For B5, in assay [1], a half-maximal response (EC50) required 0.52 nM.

B6: anti-CD47 monoclonal antibody (antibody, V domains shown)
VH: EVQLVQSGAEVKKPGSSVKVSCKASGYSFTHHWIHWVRQAPGQGLEWMGMIDASDSETRLSQKFKDRVTITADKSTSTAYMELSSLRSEDTAVYYCARLGRYYFDYWGQGTTVTVSS
VL: EIVLTQSPATLSLSPGERATLSCRASENVGTYISWYQQKPGQAPRLLIYGASNRYTGIPARFSGSGSGTDFTLTISSLEPEDFAVYYCGESYGHLYTFGGGTKVEIKR
As for B6, the EC50 was roughly 0.443 nM in assay [1] and 0.00843 nM in assay [2].

B7: TIGIT-G9-LC (bispecific antibody)
heavy: not shown
light: EIVLTQSPATLSLSPGERATLSCRASENVGTYISWYQQKPGQAPRLLIYGASNRYTGIPARFSGSGSGTDFTLTISSLEPEDFAVYYCGESYGHLYTFGGGTKVEIKRTVAAPSVFIFPPSDEQLKSGTASVVCLLNNFYPREAKVQWKVDNALQSGNSQESVTEQDSKDSTYSLSSTLTLSKADYEKHKVYACEVTHQGLSSPVTKSFNRGECGGGGSGGGSEVQLVESGGGLVQPGGSLRLSCAASGYKYGVYSMGWFRQAPGKGLEGVSAICSGGRTTYSDSVKGRFTISRDNSNQILYLQMNSLRAEDTAVYYCAARPLWTGDCDLSSSWYKTWGQGTLVTVSS
For the molecule B7, a half-maximal effect in assay [1] (EC50) was put at 0.658 nM.

B8: TIGIT-G9-LN (bispecific antibody)
heavy: not shown
light: EVQLVESGGGLVQPGGSLRLSCAASGYKYGVYSMGWFRQAPGKGLEGVSAICSGGRTTYSDSVKGRFTISRDNSNQILYLQMNSLRAEDTAVYYCAARPLWTGDCDLSSSWYKTWGQGTLVTVSSGGGGSGGGSEIVLTQSPATLSLSPGERATLSCRASENVGTYISWYQQKPGQAPRLLIYGASNRYTGIPARFSGSGSGTDFTLTISSLEPEDFAVYYCGESYGHLYTFGGGTKVEIKRTVAAPSVFIFPPSDEQLKSGTASVVCLLNNFYPREAKVQWKVDNALQSGNSQESVTEQDSKDSTYSLSSTLTLSKADYEKHKVYACEVTHQGLSSPVTKSFNRGEC
In the case of B8, the EC50 in assay [1] was determined as 0.155 nM.

B9: TIGIT-E-LC (bispecific antibody)
heavy: not shown
light: EIVLTQSPATLSLSPGERATLSCRASENVGTYISWYQQKPGQAPRLLIYGASNRYTGIPARFSGSGSGTDFTLTISSLEPEDFAVYYCGESYGHLYTFGGGTKVEIKRTVAAPSVFIFPPSDEQLKSGTASVVCLLNNFYPREAKVQWKVDNALQSGNSQESVTEQDSKDSTYSLSSTLTLSKADYEKHKVYACEVTHQGLSSPVTKSFNRGECEPKSSDKTHTSPPSPEVQLVESGGGLVQPGGSLRLSCAASGYKYGVYSMGWFRQAPGKGLEGVSAICSGGRTTYSDSVKGRFTISRDNSNQILYLQMNSLRAEDTAVYYCAARPLWTGDCDLSSSWYKTWGQGTLVTVSS
Take B9: the EC50 in assay [1] came to 0.334 nM.
